Patent US20090099029A1, “Methods and substrates for conducting assays” (Invitrogen Corporation, priority 2005, published 2009)

Tested on: kinases of Table 6 on Myelin Basic Protein (MBP)
Assay: Kinase assay using MBP substrate, ProQ Diamond stain (Table 6)
Assay type: biochemical
Conditions: kinase printed on MBP-coated slide; 20 uM ATP, 30° C.; ProQ Diamond Microarray Stain; graded Strong/Weak/Negative
Method in brief: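 Reactions ran at 30° C. with 20 uM ATP, 4 mM MgCl2 and 5% DMSO in HEPES pH 7.5, inhibitor added or omitted. Kinases had been arrayed onto slide-bound dephosphorylated bovine MBP; phospho-signal read after ProQ Diamond staining.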

Molecule	MBP Kinase Activity
JAK3 (protein, left off: a dimerising Fc or GST) ISSDYELLSDPTPGALAPRDGLWNGAQLYACQDPTIFEERHLKYISQLGKGNFGSVELCRYDPLGDNTGALVAVKQLQHSGPDQQRDFQREIQILKALHSDFIVKYRGVSYGPGRQSLRLVMEYLPSGCLRDFLQRHRARLDASRLLLYSSQICKGMEYLGSRRCVHRDLAARNILVESEAHVKIADFGLAKLLPLDKDYYVVREPGQSPIFWYAPESLSDNIFSRQSDVWSFGVVLYELFTYCDKSCSPSAEFLRMMGCERDVPALCRLLELLEEGQRLPAPPACPAEVHELMKLCWAPSPQDRPSFSALGPQLDMLWSGSRGCETHAFTAHPEGKHHSLSFS	Strong
BTK (protein, left off: small tags and cut ends) MAAVILESIFLKRSQQKKKTSPLNFKKRLFLLTVHKLSYYEYDFERGRRGSKKGSIDVEKITCVETVVPEKNPPPERQIPRRGEESSEMEQISIIERFPYPFQVVYDEGPLYVFSPTEELRKRWIHQLKNVIRYNSDLVQKYHPCFWIDGQYLCCSQTAKNAMGCQILENRNGSLKPGSSHRKTKKPLPPTPEEDQILKKPLPPEPAAAPVSTSELKKVVALYDYMPMNANDLQLRKGDEYFILEESNLPWWRARDKNGQEGYIPSNYVTEAEDSIEMYEWYSKHMTRSQAEQLLKQEGKEGGFIVRDSSKAGKYTVSVFAKSTGDPQGVIRHYVVCSTPQSQYYLAEKHLFSTIPELINYHQHNSAGLISRLKYPVSQQNKNAPSTAGLGYGSWEIDPKDLTFLKELGTGQFGVVKYGKWRGQYDVAIKMIKEGSMSEDEFIEEAKVMMNLSHEKLVQLYGVCTKQRPIFIITEYMANGCLLNYLREMRHRFQTQQLLEMCKDVCEAMEYLESKQFLHRDLAARNCLVNDQGVVKVSDFGLSRYVLDDEYTSSVGSKFPVRWSPPEVLMYSKFSSKSDIWAFGVLMWEIYSLGKMPYERFTNSETAEHIAQGLRLYRPHLASEKVYTIMYSCWHEKADERPTFKILLSNILDVMDEES	Strong
CSK (protein, left off: small tags and cut ends) MSAIQAAWPSGTECIAKYNFHGTAEQDLPFCKGDVLTIVAVTKDPNWYKAKNKVGREGIIPANYVQKREGVKAGTKLSLMPWFHGKITREQAERLLYPPETGLFLVRESTNYPGDYTLCVSCDGKVEHYRIMYHASKLSIDEEVYFENLMQLVEHYTSDADGLCTRLIKPKVMEGTVAAQDEFYRSGWALNMKELKLLQTIGKGEFGDVMLGDYRGNKVAVKCIKNDATAQAFLAEASVMTQLRHSNLVQLLGVIVEEKGGLYIVTEYMAKGSLVDYLRSRGRSVLGGDCLLKFSLDVCEAMEYLEGNNFVHRDLAARNVLVSEDNVAKVSDFGLTKEASSTQDTGKLPVKWTAPEALREKKFSTKSDVWSFGILLWEIYSFGRVPYPRIPLKDVVPRVEKGYKMDAPDGCPPAVYEVMKNCWHLDAAMRPSFLQLREQLEHIKTHELHL	Negative
TEC (protein, left off: small tags and cut ends) MNFNTILEEILIKRSQQKKKTSPLNYKERLFVLTKSMLTYYEGRAEKKYRKGFIDVSKIKCVEIVKNDDGVIPCQNKYPFQVVHDANTLYIFAPSPQSRDLWVKKLKEEIKNNNNIMIKYHPKFWTDGSYQCCRQTEKLAPGCEKYNLFESSIRKALPPAPETKKRRPPPPIPLEEEDNSEEIVVAMYDFQAAEGHDLRLERGQEYLILEKNDVHWWRARDKYGNEGYIPSNYVTGKKSNNLDQYEWYCRNMNRSKAEQLLRSEDKEGGFMVRDSSQPGLYTVSLYTKFGGEGSSGFRHYHIKETTTSPKKYYLAEKHAFGSIPEIIEYHKHNAAGLVTRLRYPVSVKGKNAPTTAGFSYEKWEINPSELTFMRELGSGLFGVVRLGKWRAQYKVAIKAIREGAMCEEDFIEEAKVMMKLTHPKLVQLYGVCTQQKPIYIVTEFMERGCLLNFLRQRQGHFSRDVLLSMCQDVCEGMEYLERNSFIHRDLAARNCLVSEAGVVKVSDFGMARYVLDDQYTSSSGAKFPVKWCPPEVFNYSRFSSKSDVWSFGVLMWEVFTEGRMPFEKYTNYEVVTMVTRGHRLYQPKLASNYVYEVMLRCWQEKPEGRPSFEDLLRTIDELVECEETFGR	Negative
PTK2(FAK) (protein, left off: a dimerising Fc or GST) MAAAYLDPNLNHTPNSSTKTHLGTGMERSPGAMERVLKVFHYFESNSEPTTWASIIRHGDATDVRGIIQKIVDSHKVKHVACYGFRLSHLRSEEVHWLHVDMGVSSVREKYELAHPPEEWKYELRIRYLPKGFLNQFTEDKPTLNFFYQQVKSDYMLEIADQVDQEIALKLGCLEIRRSYWEMRGNALEKKSNYEVLEKDVGLKRFFPKSLLDSVKAKTLRKLIQQTFRQFANLNREESILKFFEILSPVYRFDKECFKCALGSSWIISVELAIGPEEGISYLTDKGCNPTHLADFTQVQTIQYSNSEDKDRKGMLQLKIAGAPEPLTVTAPSLTIAENMADLIDGYCRLVNGTSQSFIIRPQKEGERALPSIPKLANSEKQGMRTHAVSVSETDDYAEIIDEEDTYTMPSTRDYEIQRERIELGRCIGEGQFGDVHQGIYMSPENPALAVAIKTCKNCTSDSVREKFLQEALTMRQFDHPHIVKLIGVITENPVWIIMELCTLGELRSFLQVRKYSLDLASLILYAYQLSTALAYLESKRFVHRDIAARNVLVSSNDCVKLGDFGLSRYMEDSTYYKASKGKLPIKWMAPESINFRRFTSASDVWMFGVCMWEILMHGVKPFQGVKNNDVIGRIENGERLPMPPNCPPTLYSLMTKCWAYDPSRRPRFTELKAQLSTILEEEKAQQEERMRMESRRQATVSWDSGGSDEAPPKPSRPGYPSPRSSEGFYPSPQHMVQTNHYQVSGYPGSHGITAMAGSIYPGQASLLDQTDSWNHRPQEIAMWQPNVEDSTVLDLRGIGQVLPTHLMEERLIRQQQEMEEDQRWLEKEERFLKPDVRLSRGSIDREDGSLQGPIGNQHIYQPVGKPDPAAPPKKPPRPGAPGHLGSLASLSSPADSYNEGVKLQPQEISPPPTANLDRSNDKVYENVTGLVKAVIEMSSKIQPAPPEEYVPMVKEVGLALRTLLATVDETIPLLPASTHREIEMAQKLLNSDLGELINKMKLAQQYVMTSLQQEYKKQMLTAAHALAVDAKNLLDVIDQARLKMLGQTRPH	Negative
ZAP70 (protein, left off: small tags and cut ends) MPDPAAHLPFFYGSISRAEAEEHLKLAGMADGLFLLRQCLRSLGGYVLSLVHDVRFHHFPIERQLNGTYAIAGGKAHCGPAELCEFYSRDPDGLPCNLRKPCNRPSGLEPQPGVFDCLRDAMVRDYVRQTWKLEGEALEQAIISQAPQVEKLIATTAHERMPWYHSSLTREEAERKLYSGAQTDGKFLLRPRKEQGTYALSLIYGKTVYHYLISQDKAGKYCIPEGTKFDTLWQLVEYLKLKADGLIYCLKEACPNSSASNASGAAAPTLPAHPSTLTHPQRRIDTLNSDGYTPEPARITSPDKPRPMPMDTSVYESPYSDPEELKDKKLFLKRDNLLIADIELGCGNFGSVRQGVYRMRKKQIDVAIKVLKQGTEKADTEEMMREAQIMHQLDNPYIVRLIGVCQAEALMLVMEMAGGGPLHKFLVGKREEIPVSNVAELLHQVSMGMKYLEEKNFVHRDLAARNVLLVNRHYAKISDFGLSKALGADDSYYTARSAGKWPLKWYAPECINFRKFSSRSDVWSYGVTMWEALSYGQKPYKKMKGPEVMAFIEQGKRMECPPECPPELYALMSDCWIYKWEDRPDFLTVEQRMRACYYSLASKVEGPPGSTQKAEAACA	Negative
FER (protein, left off: a dimerising Fc or GST) KSGVVLLNPIPKDKKWILSHEDVILGELLGKGNFGEVYKGTLKDKTSVAVKTCKEDLPQELKIKFLQEAKILKQYDHPNIVKLIGVCTQRQPVYIIMELVSGGDFLTFLRRKKDELKLKQLVKFSLDAAAGMLYLESKNCIHRDLAARNCLVGENNVLKISDFGMSRQEDGGVYSSSGLKQIPIKWTAPEALNYGRYSSESDVWSFGILLWETFSLGVCPYPGMTNQQAREQVERGYRMSAPQHCPEDISKIMMKCWDYKPENRPKFSELQKELTIIKRKLT	Negative
MATK(HYL) (protein, left off: small tags and cut ends) MQGHFPAERREGRPRRGTRGQQQLLVSPRFLRAWHPPPVSARMPTRRWAPGTQCITKCEHTRPKPGELAFRKGDVVTILEACENKSWYRVKHHTSGQEGLLAAGALREREALSADPKLSLMPWFHGKISGQEAVQQLQPPEDGLFLVRESARHPGDYVLCVSFGRDVIHYRVLHRDGHLTIDEAVFFCNLMDMVEHYSKDKGAICTKLVRPKRKHGTKSAEEELARAGWLLNLQHLTLGAQIGEGEFGAVLQGEYLGQKVAVKNIKCDVTAQAFLDETAVMTKMQHENLVRLLGVILHQGLYIVMEHVSKGNLVNFLRTRGRALVNTAQLLQFSLHVAEGMEYLESKKLVHRDLAARNILVSEDLVAKVSDFGLAKAERKGLDSSRLPVKWTAPEALKHGKFTSKSDVWSFGVLLWEVFSYGRAPYPKMSLKEVSEAVEKGYRMEPPEGCPGPVHVLMSSCWEAEPARRPPFRKLAEKLARELRSAGAPASVSGQDADGSTSPRSQEP	Negative
FES (protein, left off: small tags and cut ends) MGFSSELCSPQGHGVLQQMQEAELRLLEGMRKWMAQRVKSDREYAGLLHHMSLQDSGGQSRAISPDSPISQSWAEITSQTEGLSRLLRQHAEDLNSGPLSKLSLLIRERQQLRKTYSEQWQQLQQELTKTHSQDIEKLKSQYRALARDSAQAKRKYQEASKDKDRDKAKDKYVRSLWKLFAHHNRYVLGVRAAQLHHQHHHQLLLPGLLRSLQDLHEEMACILKEILQEYLEISSLVQDEVVAIHREMAAAAARIQPEAEYQGFLRQYGSAPDVPPCVTFDESLLEEGEPLEPGELQLNELTVESVQHTLTSVTDELAVATEMVFRRQEMVTQLQQELRNEEENTHPRERVQLLGKRQVLQEALQGLQVALCSQAKLQAQQELLQTKLEHLGPGEPPPVLLLQDDRHSTSSSEQEREGGRTPTLEILKSHISGIFRPKFSLPPPLQLIPEVQKPLHEQLWYHGAIPRAEVAELLVHSGDFLVRESQGKQEYVLSVLWDGLPRHFIIQSLDNLYRLEGEGFPSIPLLIDHLLSTQQPLTKKSGVVLHRAVPKDKWVLNHEDLVLGEQIGRGNFGEVFSGRLRADNTLVAVKSCRETLPPDLKAKFLQEARILKQYSHPNIVRLIGVCTQKQPIYIVMELVQGGDFLTFLRTEGARLRVKTLLQMVGDAAAGMEYLESKCCIHRDLAARNCLVTEKNVLKISDFGMSREEADGVYAASGGLRQVPVKWTAPEALNYGRYSSESDVWSFGILLWETFSLGASPYPNLSNQQTREFVEKGGRLPCPELCPDAVFRLMEQCWAYEPGQRPSFSTIYQELQSIRKRHR	Negative
